Results from US20210332142A1 (Genentech, published 2021).

What was measured:
[1] = molecular target: T1, recombinant cyno Tie2 extracellular domain (cynomolgus monkey, UniProt Q02763 23-748 (human entry)); experiment: SPR, IgG captured, steady state analysis
T1 construct: also called Recombinant cyno Tie2 ECD; cy Tie2
T1 chain: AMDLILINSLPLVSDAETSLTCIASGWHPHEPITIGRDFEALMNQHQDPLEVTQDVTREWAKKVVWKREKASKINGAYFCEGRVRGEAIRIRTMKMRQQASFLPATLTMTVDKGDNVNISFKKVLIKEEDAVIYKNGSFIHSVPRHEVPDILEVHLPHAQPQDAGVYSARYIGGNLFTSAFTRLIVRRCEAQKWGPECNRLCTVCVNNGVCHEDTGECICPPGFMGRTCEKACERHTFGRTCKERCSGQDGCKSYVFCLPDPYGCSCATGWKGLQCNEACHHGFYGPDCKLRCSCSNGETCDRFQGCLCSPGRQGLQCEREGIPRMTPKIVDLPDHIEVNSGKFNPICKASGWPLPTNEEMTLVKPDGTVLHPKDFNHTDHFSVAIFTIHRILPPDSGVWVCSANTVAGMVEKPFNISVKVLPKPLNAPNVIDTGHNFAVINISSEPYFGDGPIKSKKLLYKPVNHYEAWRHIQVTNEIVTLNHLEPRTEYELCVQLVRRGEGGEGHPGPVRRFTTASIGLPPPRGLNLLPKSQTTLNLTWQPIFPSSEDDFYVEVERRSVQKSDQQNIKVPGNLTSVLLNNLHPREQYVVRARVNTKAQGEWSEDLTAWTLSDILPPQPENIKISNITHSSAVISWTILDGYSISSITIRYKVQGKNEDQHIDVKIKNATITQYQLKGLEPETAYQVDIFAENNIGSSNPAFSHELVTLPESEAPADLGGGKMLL
Method: (§1) Binding to recombinant human and cyno Tie2 was analyzed using a high performance multi-cycle kinetics format with a contact time of 60 seconds, a dissociation time of 60 seconds, a flow rate of 100 μl/minute and Tie2 concentrations of 5 μM, 2.5 μM, 1.25 μM, 625 nM, 313 nM and 156 nM. Tie2 concentrations of 5 μM, 2.5 μM and 1.25 μM were injected twice. Results were analyzed using Biacore T200 Evaluation Software v3.0 (GE Life Sciences). Results from all three surface densities were analyzed together using the 1:1 Binding model with multiple Rmax and the RI parameter set to zero.

[2] = molecular target: T2, recombinant human Tie2 extracellular domain (human, UniProt Q02763 23-748); experiment: SPR, IgG captured, steady state analysis
T2 construct: whole entry named; also called Recombinant human Tie2 ECD; hu Tie2
Method: as §1

[3] = molecular target: T1, recombinant cyno Tie2 extracellular …; experiment: SPR multi-cycle kinetics, IgG captured, kinetic analysis
Method: as §1

human Tie2ECD.flag = molecular target: T3, human Tie2ECD.flag (human, UniProt Q02763 23-748); experiment: Biacore, hIgG captured, 25C
T3 construct: also called hTie2.flag; not shown: C-terminal Flag tag
Method: (§2) Monovalent affinities of selected anti-Tie2 hIgGs were determined using a Biacore T200 instrument (GE Life Sciences). Anti-humanFc was covalently immobilized on a Series S CM5 Biacore sensor chip to enable non-covalent capture of anti-Tie2 antibodies and binding of human or rat Tie2ECD.flag was monitored in real time at 25° C. using a multi-cycle kinetics experiment format. Between cycles, the surface was regenerated with 3 M MgCl₂. Monovalent affinities were determined by kinetic analysis, using Biacore Evaluation Software (GE Life Sciences) to fit a 1:1 binding model to the data.

rat Tie2ECD.flag = molecular target: T4, rat Tie2ECD.flag (rat, UniProt A0ABK0L6J5 19-740); experiment: Biacore, hIgG captured, 25C
T4 construct: extracellular domain; also called rTie2.flag; not shown: C-terminal Flag tag
Method: as §2

[4] = molecular target: T1, recombinant cyno Tie2 extracellular …; experiment: SPR, IgG captured, 37C
Method: A human antibody capture chip was prepared using a Series S CM5 chip (GE Life Sciences), a human antibody capture kit (GE Life Sciences) and an amine coupling kit (GE Life Sciences). Antibodies diluted to 5 μg/ml in running buffer (10 mM HEPES, 150 mM NaCl, 0.05% Tween 20, 1 mM EDTA, pH 7.4) were non-covalently captured using a contact time of 20 seconds and a flow rate of 10 μl/minute. Binding to 300 nM and 1500 nM recombinant Tie2 was analyzed at 37° C. using a Single Cycle Kinetics method with a contact time of 60 seconds, a dissociation time of 120 seconds and a flow rate of 50 μl/min. Between cycles, the surface was regenerated by a 30 second injection of 3M MgCl₂ at a flow rate of 30 μl/min. Values for antibody capture levels and analyte binding levels were obtained from the Report Point Table (Biacore Evaluation Software v3.0, GE Life Sciences). […] Table 16: Experiment A; Table 17: Experiment B.

human Tie1 = molecular target: T5, human Tie1 (human, UniProt P35590 22-759); experiment: ELISA: human Tie1 immobilized, serial dilutions of IgG, anti-huFc-HRP
T5 construct: extracellular domain
T5 sequence (looked up): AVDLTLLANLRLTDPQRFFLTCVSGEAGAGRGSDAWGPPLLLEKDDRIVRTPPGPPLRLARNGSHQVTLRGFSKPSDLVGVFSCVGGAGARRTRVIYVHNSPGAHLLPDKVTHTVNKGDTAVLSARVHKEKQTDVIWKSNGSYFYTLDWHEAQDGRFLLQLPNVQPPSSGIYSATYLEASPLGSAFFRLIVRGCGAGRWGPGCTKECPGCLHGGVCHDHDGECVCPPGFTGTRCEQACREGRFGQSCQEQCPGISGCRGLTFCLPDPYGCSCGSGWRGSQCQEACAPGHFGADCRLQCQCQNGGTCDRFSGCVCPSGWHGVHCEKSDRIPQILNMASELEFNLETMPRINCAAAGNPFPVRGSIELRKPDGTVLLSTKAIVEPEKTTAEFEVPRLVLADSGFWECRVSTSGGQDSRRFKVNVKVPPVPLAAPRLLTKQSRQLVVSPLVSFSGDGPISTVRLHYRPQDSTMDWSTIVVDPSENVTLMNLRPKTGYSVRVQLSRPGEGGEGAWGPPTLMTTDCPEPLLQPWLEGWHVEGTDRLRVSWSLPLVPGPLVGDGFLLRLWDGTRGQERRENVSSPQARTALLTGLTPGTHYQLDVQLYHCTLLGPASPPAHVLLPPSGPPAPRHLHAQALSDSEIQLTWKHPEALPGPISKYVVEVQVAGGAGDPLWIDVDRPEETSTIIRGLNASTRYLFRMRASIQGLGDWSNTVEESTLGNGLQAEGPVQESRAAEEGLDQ
Description: Plates were washed and detected with anti-huFC-conjugated HRP secondary antibody using the methods above.
The binding ELISA was also used with immobilized Tie1 protein to assess Tie1 binding.

T3 sequence (Q02763 23-748 limits assumed): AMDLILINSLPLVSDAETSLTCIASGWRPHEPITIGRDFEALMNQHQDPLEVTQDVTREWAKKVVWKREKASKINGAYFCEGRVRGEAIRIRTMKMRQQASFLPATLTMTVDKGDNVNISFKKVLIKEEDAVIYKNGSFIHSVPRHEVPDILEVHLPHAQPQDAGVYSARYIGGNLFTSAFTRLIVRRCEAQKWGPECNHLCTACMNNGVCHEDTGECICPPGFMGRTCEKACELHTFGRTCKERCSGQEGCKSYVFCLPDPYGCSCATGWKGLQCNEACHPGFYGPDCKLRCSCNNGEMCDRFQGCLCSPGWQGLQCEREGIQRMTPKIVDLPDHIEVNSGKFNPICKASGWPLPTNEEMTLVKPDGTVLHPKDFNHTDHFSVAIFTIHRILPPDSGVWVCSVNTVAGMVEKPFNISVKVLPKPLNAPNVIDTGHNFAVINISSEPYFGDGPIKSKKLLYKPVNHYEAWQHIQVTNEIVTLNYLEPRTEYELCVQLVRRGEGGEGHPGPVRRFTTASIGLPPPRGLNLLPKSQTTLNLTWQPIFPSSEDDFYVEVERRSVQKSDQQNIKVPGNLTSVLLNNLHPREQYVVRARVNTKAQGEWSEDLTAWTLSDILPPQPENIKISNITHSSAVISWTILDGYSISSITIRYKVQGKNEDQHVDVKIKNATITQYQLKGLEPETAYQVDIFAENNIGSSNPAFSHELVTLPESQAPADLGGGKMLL

Kd [1]: 3000 nM
Kd [2]: 3000 nM
koff [3]: 0.44 s⁻¹
kon [3]: 150000 M⁻¹ s⁻¹
Kd (human Tie2ECD.flag): 1200 nM
Kd (rat Tie2ECD.flag): 1600 nM
Normalized Binding Signal, 300 nM [4]: 0.08
binding result (human Tie1): no binding (tested: 200 nM)
B1: Tie2.1 (antibody, human IgG1, V domains shown)
VH: EVQLVESGGGLVQPGGSLRLSCAASGFTFSNTDISWVRQAPGKGLEWVGRISPSDGNTYYADSVKGRFTISADTSKNTAYLQMNSLRAEDTAVYYCARRTRWASWAMDYWGQGTLVTVSS
VL: DIQMTQSPSSLSASVGDRVTITCRASQDVSTAVAWYQQKPGKAPKLLIYSASFLYSGVPSRFSGSGSGTDFTLTISSLQPEDFATYYCQQSYTTPPTFGQGTKVEIKR
notes: human IgG1 in all later assays; also called Ab1; Tie2.1.M100c
